In patent US20110319338A1, “PEPTIDES THAT BIND EUKARYOTIC TRANSLATION INITIATION FACTOR 4E” (The Board of Regents of the University of Texas System, priority 2008, published 2011):
Square brackets hold non-standard residues; d marks the D form. Ends that are not written are not given here.

Legend:
[1] = tested on: ES-2-GFP cells; assay: Mouse i.p. xenograft model of epithelial ovarian cancer; type: in vivo
Method: FIGS. 4A-4C. Anti-tumor activity of [DLys6]GnRH-4EBP1-WT peptide in a xenograft model of EOC. Female nude mice were inoculated i.p. with one million ES-2-GFP cells. At Day 9 after tumor cell inoculation, one group of mice (n=5) was sacrificed (pre-treatment). At Day 9, other groups of mice were administered by i.p. injection with saline (n=11), [DLys6]GnRH (n=11) or [DLys6]GnRH-4EBP1-WT (n=11) at a dose of 3.0 nanomoles per gram body weight Saline or peptide was administered every 2 days thereafter for 11 days (6 doses in total), and mice were sacrificed on Day 20. (FIG. 4A) Visualization under a fluorescence stereoscope of i.p. tumors in pre-treatment mice (at Day 9) including implants on the omentum (ome), and in mice treated with saline, with agonist alone and with [DLys6]GnRH-4EBP1-WT (at Day 20). (FIG. 4B) Hematoxylin eosin-stained sections of tissues of pre-treatment mice (at Day 9) and of saline- and peptide-treated mice (at Day 20). Tumors attached to the omentum extensively involved the pancreas in saline- and agonist-treated mice. Also shown are tumors attached to the broad ligament and mesentery. Bar, 200 micrometers. (FIG. 4C) Quantification of i.p. tumor burden in pre-treatment and treated mice that completed the regimen, expressed as the average percent of area of fluorescence within the abdominal cavity in captured images, and volume of ascites. Median values of tumor burden and ascites volume for each group and statistical significance of differences between groups are indicated.
Animal Studies. Animal studies were approved by the Institutional Animal Care and Use Committee. The ES-2 cell line stably expressing enhanced green fluorescent protein (ES-2-GFP) has been described in previous work (Hara et al., 2007). Four-week-old female nude mice were inoculated i.p. at one site in the lower abdomen with 10^6 ES-2-GFP cells. At Day 9 after tumor cell inoculation, one group of mice (n=5) were killed by CO2 asphyxiation. At Day 9, other groups of mice were administered by i.p. injection with 200 microliters of phosphate-buffered saline (PBS) (n=11), [DLys6]GnRH (n=11) or [DLys6]GnRH-4EBP1-WT peptide (n=11) at a dose of 3.0 nanomoles per gram body weight. Peptides were suspended in PBS and administered at a volume of 200 microliters. PBS or peptide was administered every 2 days thereafter for 11 days (6 doses in total). Mice were sacrificed on Day 20, and ascites harvested. Tumors were visualized under a Leica MZML III fluorescence stereomicroscope equipped with mercury lamp power supply and green fluorescent protein (GFP) filter set. Tumor burden was quantified by measuring areas of fluorescence signals within the abdominal cavity in captured images by using Image Pro Plus 5.0 software (Media Cybernetics, Bethesda, Md.). Slides of paraffin-embedded tissues collected from mice were stained with hematoxylin-eosin. TUNEL-staining of tissue sections was performed using the in situ cell death detection kit (Roche).
To determine the efficacy of [DLys6]GnRH-4EBP1-WT peptide in vivo, a mouse i.p. xenograft model was used that was established from an ES-2 cell line stably expressing GFP (Hara et al., 2007). This model mimics the typical behavior of epithelial ovarian cancer, including i.p. dissemination and ascites formation. This example comprised three treatment groups of mice i) saline, ii) [DLys6]GnRH agonist, and iii) [DLys6]GnRH-4EBP1-WT, where sample size of each group was n=11. The first dose of peptide or saline was administered i.p. to mice at Day 9 after tumor cell inoculation. At Day 9, no ascites had yet formed but tumors had established on the omentum, broad ligament and mesentery which are common sites of ovarian cancer cell attachment (FIGS. 4A,B). A schedule in which peptide was administered every 2 days was chosen, based on the studies of peptide stability in serum (FIG. 6).
Based on studies of other agonist conjugates in xenograft models (19-21), a peptide dose of 3.0 nanomoles per gram body weight was used. […]

[2] = target: T1, eIF4E in SKOV3+GnRH-RI cells (Homo sapiens, UniProt P06730); assay: Pull-down of peptide from lysates of peptide-treated cells, Western blot with eIF4E antibody; type: cell-based; conditions: 10 micromoles per liter, 24 hours
T1 construct: endogenous in cells; host or cells: SKOV3 cells stably transfected with human GnRH-RI (eIF4E itself is not transfected)
Method: FIGS. 8A-8D. Effect of [DLys6] GnRH-4EBP1 peptide in SKOV3 cells stably expressing GnRH-RI. (FIG. 8A) Western blot analysis of GnRH-RI in parental SKOV3 cells and SKOV3 cells transfected with GnRH-RI. In (FIG. 8B), SKOV3+GnRH-RI cells were treated with biotinylated peptides at a final concentration of 10 micromoles per liter or incubated without peptide. At 24 hours after treatment, lysates were prepared from cells. Peptide was pulled-down using streptavidin-agarose. Precipitates and supernatants were analyzed by Western blot using eIF4E antibody. (FIG. 8C) parental SKOV3, SKOV3+GnRH-RI and ES-2 cells were treated with the indicated peptides (10 micromoles per liter) or incubated without peptide. At 24 hours after treatment, lysates were prepared from cells. Immunoprecipitation was performed using eIF4E antibody, and Western blot of precipitates was performed using eIF4G antibody. Western blot of whole cell lysates of treated cells was performed using antibodies to eIF4G, eIF4E and actin. (FIG. 8D) TUNEL-staining of parental SKOV3 and SKOV3+GnRH-RI cells at 3 days following treatment with peptide at a final concentration of 30 micromoles per liter.
Immunoprecipitation (IP) and Western blotting. Biotinylated peptides were incubated with 250 micrograms of cell lysate at a final concentration of 3 micromoles per liter for 6 hours at 4° C. […]

[3] = drop-out mice, individual animals

T1 sequence (P06730 whole entry): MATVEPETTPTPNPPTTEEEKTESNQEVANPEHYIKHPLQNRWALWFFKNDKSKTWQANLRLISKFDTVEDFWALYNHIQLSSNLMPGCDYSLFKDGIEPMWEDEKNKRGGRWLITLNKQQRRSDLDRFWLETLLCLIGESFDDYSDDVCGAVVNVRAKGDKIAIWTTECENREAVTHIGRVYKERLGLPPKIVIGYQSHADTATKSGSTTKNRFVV

“[DLys6]GnRH: GnRH agonist with a D-amino acid substitution at position 6; GnRH-RI-targeting moiety (QHWSY[dK]LRPG; not fully specified (residue 1, C-terminus); ends and bridges not checked)” was tested, and the Ascites volume [1, 3] was 8.9 mL, the “Percent i.p. tumor burden” value [1, 3] was 40.9% and the “i.p. tumor burden, percent of the abdominal cavity (mean)” value ([1]; mice that completed regimen, Day 20, 3.0 nanomoles per gram body weight i.p. every 2 days, 6 doses) was 56.4%. For the same substance, the “Drop-outs (euthanized prior to completion due to morbidity related to ascites accumulation)” value ([1]; mouse, in vivo) was 1, the “Mice euthanized, day” value ([1]; mouse, in vivo) was “n = 1, day 16” and the “day of death before completing treatment regimen” value ([1]; mouse, in vivo) was 17 days. The “Deaths (died before completing treatment regimen)” value ([1]; of 11 mice per group) was 2 and the “binding of peptide to eIF4E in treated cells” value [2] was “neither mutant peptide nor [DLys6]GnRH alone bound eIF4E”.
